In the DeepSol protein solubility set:

Assay: soluble on expression in E. coli; label from the status in PepcDB or PDB records
For “MQQLPKLDLKNKVSAQEWQLRVDLAACYRLLQMHGWDDLIHTHISVCIPGTEHILINAFGLAFEEITASNLVKIDIKGNIIDKDCPFEINPAGFTIHSAVHEVRHDDICALHVHTNETIAVASVEEGLLPLSQYSMFALASMSYHDYEGLAVNDDEKLRLQNDLGDKNFMLLRNHGALTMGKTIGDAFMHMYDLTRACQIQLQVMATGMKPIYAPQSIIDGIKAQANIVHDGETGGQKAWPAMLRRVYRNDPTFAE”, the “soluble on expression in E. coli” value was “not soluble”. In the case of “MLEDMSKDALFYNYYAQWIEVYKKDAIREATMAKYRMTQKWVEKLAPELKVCELTRTAYQKILNDYAKEHERQTTLDFHHQLKGAVMDAVDEGLIERDPTRKAIIKGKTPREKKIKYLNQFELHTLIADLDIKEEPNWDWFILLVAKTGMRFSEALAITPKDFDFGRQTLSISKTWDYKGKGGFLPTKNKSSVRKIQIDWQIVVKFSELIKGLPEDEPIFVGEEKIYNSTVNDALTRHCKACGISEISIHGLRHTHASLLLFAGVSIASVARRLGHASMTTTQKTYLHIIQELENKDVDLVMRTLSGL”, the “soluble on expression in E. coli” value is reported as “soluble”. For “MELNDMAQFNEPISSQLLAIDENLTQLVTDIDILSSVNPLNYAQERERFISNKYSQEPNFQYQKAPLDTHQSKRRLYELPLEHIEDTQLQKLYEDVIQSYADKLDQVNTIGTQEFLYNSLRYYGEPSAKDIANAHFILHLPTEEESKPEHDSRSIAHFMQSFADKNGYECEIQILDGMLANALVSGSRVKINSAAHITTDELEALAHHEMGVHLLTTLNGRQQPLKVLSLGCPANTNTQEGLAILCEYLSGHFSIKRLRTLALRVLAVESMIKERDFRHTFMLLKEQYKASDVQAFTITSRVYRGGGLTKDYLYLRGFREVLNAYDKLGDDFSLLLCGKTELKYFDLIRSLVNKGIFTQPKFISPALSTPKQTNPIHRYIVSALKLEHHHHHH”, the “soluble on expression in E. coli” value was “soluble”. In the case of “MTQWKNALSEGQLQQALELLIEAIKASPKDASLRSSFIELLCIDGDFERADEQLMQSIKLFPEYLPGASQLRHLVKAAQARKDFAQGAATAKVLGENEELTKSLVSFNLSMVSQDYEQVSELALQIEELRQEKGFLANDTSFSDVRDIDDRLGGYIELFSTAGNYFLVPIASINTLEIKSATSLLESVWRPVEFDIDGLGEGEGHMPMTYVDSESDAQKLGRETDWKQIADKEVYLGLGLKCWLVGEMALPISDLQNLQVIKELALEHHHHHH”, the “soluble on expression in E. coli” value is reported as “soluble”. In the case of “MMDDILKQIKAGEVSGVQFKERILDKYDIACELVAFSNSHGGKLVVGIKDKTGETNALSYSEVQETTNLLSDIASENVVPSILIKIDTVEVEDGNLVVATVKEGLNKPYHDNKGIVWVKNGADKRKVFDNAELAEMMTDCGSFAPDEAGVRDATVNDLDATTIKQFLGNRFERVLDKKGLTGDAFNEASLDMICSAIAKGHDCEKILRNLRFIRPDGTLTVAAMLLFGKYTQRWMPMMTAKCICFAGNSVGSKVFRDKVNDADMEGNLLHQYDTIMDFFTRNLHNVQVGDEFNSMGKLEIPYTSLVEFTVNSLVHRSLNMKAPVRIFIFDNRVEIHSPGALPNGLTIDDIKAGTSMPRNTFLFNNAIYLLPYTGVGSGITRALDEDINVTFMNNDKAQEFVITVWRGESNQVEDLDTGLRHSDTDLDTGLRHSDTDLDTKRVTLTNKEKDIVNFCSVPRTTKEILDRIGVSMHSKNRERYITSLVAAGYLQMTNPDNPTASNQKYKKVNKR”, the “soluble on expression in E. coli” value is reported as “not soluble”. In the case of “MGSDKIHHHHHHMDSWNMKGSKMVDVNEITKYLPGFNCGACGYKRCDLFAEALLNKDVKLEDCPFLLRERFKENYEKLKEILKIKGKIKKEEKYIGVIDGYEADFLLKPLPNECSCRETLLIMDKKELKVGDYIRYRPLGCPIPHFAKIIDEYHGFYIIHVVGPSHRITGEKIEYKDVGIAIVVAFEGIVEGKVPEVGKTVKFIPKHCMMQKVHSGVVVQVEGKRVYIEGIDLKVF”, the “soluble on expression in E. coli” value is reported as “not soluble”. For “MKYKRVLLKLSGEFLTRNGFGIEPEATQALAREIKAAYDTGVQLAIVIGAGNLWRGARQGVGMDRATADYIGMLATIMNALALQDALESLGVPTRVQTALTITQVAEPYIRRRALRHLEKERIVIFGGGTGNPFFSTDTAAALRALEVGAEVVLMAKNKVDGVYSDDPRKNPEAVRFDELTYLEVLNRGLQVMDTTAITLCMEAGLPIVVFDIFKPGALVGIIQGEKVGTLIH”, the “soluble on expression in E. coli” value was “soluble”. For “MASQLLINDSKYGFLKELGLTENNAGVFHGKWAASGQVVQSFAPANNSPIANVQNGNVQDYEIAISEAKKAYNDWCEVPAPRRGEIVRQIGDKLRTQLQNLGKLVSLEMGKISAEGVGEVQEYVDICDYATGLSRSLEGKIFPSERPGHALLEQWNPLGVVGVISAFNFPCAVYGWNNALALVTGNSVVWKPAPSTPLTAIAVTKLVEEVLVANNVNPALCSLVCGEGDVGQALVKDKRVNLVSFTGSSEIGKIVGQQVQARFGKLLLELGGNNAIIVNEDADLNMVVPATVFAAVGTAGQRCTTTRRLIVHDKVYDQVLERLKKAYAQFESRIGCPLDSNTIIGPLHNQQAVGKYKASVAEAVASGGKIEYGGKVLERDGNFVLPTIVTGLKHDSPVVLRETFAPILYVLKFSTLEEAIAINNEVDQGLSSSLFTTNIQNVFKWMGPKGSDCGIVNVNIPTSGAEIGGAFGGEKETGGGRESGSDSWRQYMRRSTCTINYSKELPLAQGIKFE”, the “soluble on expression in E. coli” value was “not soluble”. With “MPGSTGKTRTAEAGETARRDQDSNSYVYGVVPADVELDPEARGVGDPPGRISLVRHGEIAALVSDIVLDRPLGRPDDLLAHQRLLDATAAEVPVLPFRFGAVVSDSEAVVEELLGPNHDDFLAALKELEGRAEYVVKGRYVERVVIGEVLAEDPEATRLREEIRGRPEEATWDARIQLGQMIGEAVAAKRDADTAALVDALAPKCAGVVVREPTHEQDAVHVAVLVDTDRQAEFEKILDEFGERWAGRIDLRLLGPLAPYDFVMAPGQGG” the “soluble on expression in E. coli” value was “soluble”. For “MGSDKIHHHHHHMETQNKPTVTDIDRPILVPPGGHKKVLLHSCCAPCSGEVMEAMLASGIDYTIYFYNPNIHPHKEYMLRKEENVRFAEKFGIPFIDKDDDYENDRKEWFAKAKGMEFEPERGIRCTMCFDMRFEKAAQYAHEHGFPVFTSSLGISRWKNMNQINDCGRRAAAPYDDVVYWDFNWRKGGGSARMIEISKRENFYQQEYCGCAYSLRDSNAHRKSQGRIPIKLGVLYYGDESTQYEPAPIRVDK”, the “soluble on expression in E. coli” value was “not soluble”. For “MARIIRRPLNLTAAVRFRLSPLSPFSGNSGSINSETTSWSELIRVPSLVEGCDYKHWLVLMKPPNGYPTRNHIVQSFVETLAMALGSEEEAKRSIYSVSTKYYYAFGCRIHEPLTYKIRSLPDVKWVLPDSFIVDGDNRYGGEPFVDGEVVPYDEKYHADWLRDQTDEDAKSGVVKKKHRRKRKKKLI”, the “soluble on expression in E. coli” value was “soluble”. With “MRGSHHHHHHTDPALRAKKIAIVGAGPTGIYTLFSLLQQQTPLSISIFEQADEAGVGMPYSDEENSKMMLANIASIEIPPIYCTYLEWLQKQEDSHLQRYGVKKETLHDRQFLPRILLGEYFRDQFLRLVDQARQQKFAVAVYESCQVTDLQITNAGVMLATNQDLPSETFDLAVIATGHVWPDEEEATRTYFPSPWSGLMEAKVDACNVGIMGTSLSGLDAAMAVAIQHGSFIEDDKQHVVFHRDNASEKLNITLLSRTGILPEADFYCPIPYEPLHIVTDQALNAEIQKGEEGLLDRVFRLIVEEIKFADPDWSQRIALESLNVDSFAQAWFAERKQRDPFDWAEKNLQEVERNKREKHTVPWRYVILRLHEAVQEIVPHLNEHDHKRFSKGLARVFIDNYAAIPSESIRRLLALREAGIIHILALGEDYKMEINESRTVLKTEDNSYSFDVFIDARGQRPLKVKDIPFPGLREQLQKTGDEIPDVGEDYTLQQPEDIRGRVAFGALPWLMHDQPFVQGLTACAEIGEAMARAVVKPASRARRRLSFDGLCGR” the “soluble on expression in E. coli” value was “soluble”. In the case of “MSLKVPGIRNYDGPAGGWGALKATATAVREQMDTLKAPLTLMRTNQPDGFDCPGCAWPDKEHKSTFQFCENGAKAVTWEATNKRVTPAFFAQHPVTSLLQRSDYELEDLGRLTEPLVYDRASDTFKPVAWQDAFARIGEILRSLQPEQVEFYTSGRASNEAAYLYQLFAREYGCNNFPDCSNMCHEPTSVGLPRSIGIGKGTVSLEDFDLCELIISIGHNPGTNHPRMMGTLHEASRRKVPIMVFNPLRERALERFADPQNMVEMATYGSTRIASSYFQVKAGGDAAAIKGIMKALLALEDSLGQVLDQAFIAEHTQGFEALAADLHATAWADIEQASGLHQADLEMVAAAYAKSNATIVTYGMGITQHNEGTANVRLICDLLMLRGNLGKPGAGICPLRGHSNVQGNRTVGITEKPSPAFLDKLQQTFGFTPPAHHGHDAVQAMQAMIAGSAKALLCLGGNFAVALPDPGQCFPAMGKLDLSVHIATKLNRSHLLVARETFLFPCLGRTELDMQDGLRQAITVEDSMSMVHASAGKLAPASEFLLSEPAIVAGMARATLPGSRVPWLELVADYDKIRDLIEQTVPGFDDYNARIRVPGGFRMPLAAAERQWLTPSGKAEFFVFPGLHEDKEVDGADVLRLITLRSHDQYNTTIYALDDRYRGVFGRRDVLFISPADLAARGLAHGDLVDIETVIGGRRLRYEKITAIEYKIANGTVGAYYPEANRLVPLDYLDVDSGTPSYKSVPVRVLRSSPAEGHHHHHH”, the “soluble on expression in E. coli” value is reported as “soluble”. With “MVYKNILVGLDGSSQADNAFKVACGLANALSADLHPIWIVNRDRGMDSSFGVNEDFYRDQYHQVQDKLVSYVEDAKKAGLKVTGEALVGNIKLVLANEYPKEHGIDLIVLGNTGLNTVEKLVVGSHTSYVIRNSACDVLVVK” the “soluble on expression in E. coli” value was “not soluble”. In the case of “MRAADAPDAPLPEDRRNAPVWFAHDLEAPRCTALFPRLADRRPALVVVGGFLGSGKTTFLNNCIEYHRARERFVAVIQNEVGATGVDARLMGDGAEVLALDEGCVCCSLAGSLAGGIRAITADFTPEVILLETTGLANPLNLLAELDTLRDMVRLDAVVTVVDAANIVPTLRDSDIARDQIRGADIIVCNKCDTVDETGRAALRATLTGLNGRAALHETSFGRIHPSLFMALEGERPPRGLMPAPHGTHATHADEGFAAVRLFFSGTIDEAALAPLLQQCPGAPFRIKGIVRVTDDEAPRLVQCVGARCEVERLDGGFEGTPFLVFIGRNPDETALLEHWAALGATAEPPAPQAEADTQPAQATKSASGGQSSDATRGCHDHHLEHHHHHH”, the “soluble on expression in E. coli” value is reported as “not soluble”. For “MGSDKIHHHHHHMNKNPEIQFRSPEEIKAYQESRLAEELLYLQNHSRFYQHLFQAYHIDIQQIKTIEDLQQIPVTTKTDLQLHNEDFICVSRDEIIDYVTTSGTLGDPVTFVLTSEDLDRLAYNEYLSFTTTGCSRQDILQLMTTIDRRFMAGLAYYMGARELGMGVARVGNGIPELQWDTIRRIHPTCGMVVPSFLIKLIEFAEKNHIDYHHCSMQKCVCIGEALRNPDFTLNTLGKRIHEKWDSLQLYSTYASTEMQSSFTECNEFHGGHLQPELIIVEFLDDNNQPVKEGEAGEVTITTLGVRGMPLLRFKTGDICYHYTEPCACGRNTIRLSSILGRKGQMIKYKGTTLYPPALFDILDNIPHIKNYIVEVYTNELGTDEILIRIGSENRSEAFAKEIKDLFRSKVRVAPSINFESAEYIAKIQMPPMSRKIVKFIDLR”, the “soluble on expression in E. coli” value was “not soluble”. For “MFRMPIVTMERVDSFSAAHRLHSEKLSDAENKETFGKCNNSNGHGHNYVWKVKLRGEVDPTSGMVYDLAKLKKEMSLVLDTVDHRNLDKDVEFFKTTVSTSENVAIYMFEKLKSVMSNPSVLYKVTIEETPKNIFTYKGC”, the “soluble on expression in E. coli” value was “not soluble”. With “MGSDKIHHHHHHATASESSKYIGLQLYSLRDLVKEEGIQKVLETAAKMGYKNLETASYDNGKIYGLAPAEFKKMVNDLGMKCTSAHLGQAFTKEKEAEVMSWWDQAIDAHNELGVKYMVQPWMPVNDKTTLDDLKMYCDYFNTVGYKTAAASIAFGYHNHDFEFRKIDDQLIYDFLLDNVSPNHVFFEMDVYWVMMGGGDPVAYLKNRPSQFKAIHIKDEKEIGASGKMNFKPIFDQMYANNVKDWYVEVEQYTNNDPVASVQQSYDFLNKADYVK” the “soluble on expression in E. coli” value was “not soluble”.
